According to the supplement of paper PMC9112550, “Optimization of the antimicrobial peptide Bac7 by deep mutational scanning” (BMC Biology, 2022):

Tested on: Escherichia coli TOP10
Test: shrunken log2 fold change of peptide-encoding DNA abundance (4.5 h post-induction vs induction); higher = less antimicrobial activity (less host growth inhibition)
Settings: time post-induction: 4.5 h; library: site-saturation at positions 5, 18, 19, 20
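Further: peptides expressed intracellularly from a pBAD plasmid library in pooled LB shake-flask culture, induced with 0.3% L-arabinose, DNA abundance read by NGS, three biological replicates, DESeq2 with apeglm shrinkage.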

Row | Sequence | shrunken log2 fold change
1 | RRIRNRPPRLPRPRPRPTWGPRP | -0.00179
2 | RRIRWRPPRLPRPRPRPKAKPRP | 0.166
3 | RRIRHRPPRLPRPRPRPSAPPRP | -0.239
4 | RRIRTRPPRLPRPRPRPAQSPRP | 0.343
5 | RRIRWRPPRLPRPRPRPWINPRP | -0.506
6 | RRIRMRPPRLPRPRPRPRDYPRP | -0.164
7 | RRIRIRPPRLPRPRPRPSPKPRP | -0.178
8 | RRIRIRPPRLPRPRPRPDKGPRP | 0.0101
9 | RRIRTRPPRLPRPRPRPWSIPRP | -0.325
10 | RRIRMRPPRLPRPRPRPDEGPRP | -0.0141
11 | RRIRSRPPRLPRPRPRPVSCPRP | -0.00594
12 | RRIRKRPPRLPRPRPRPHPNPRP | 0.135
13 | RRIRWRPPRLPRPRPRPKRPPRP | 0.873
14 | RRIRKRPPRLPRPRPRPNEQPRP | 0.11
15 | RRIRQRPPRLPRPRPRPERPPRP | 0.223
16 | RRIRRRPPRLPRPRPRPFEIPRP | -0.00184
17 | RRIRWRPPRLPRPRPRPPMMPRP | 0.203
18 | RRIRGRPPRLPRPRPRPFHTPRP | -0.161
19 | RRIRRRPPRLPRPRPRPHGIPRP | 0.0963
20 | RRIRMRPPRLPRPRPRPTSLPRP | 0.546
21 | RRIRFRPPRLPRPRPRPATKPRP | 0.217
22 | RRIRHRPPRLPRPRPRPEGGPRP | -0.0289
23 | RRIRQRPPRLPRPRPRPCCGPRP | 0.0293
24 | RRIRQRPPRLPRPRPRPFYAPRP | -0.0278
25 | RRIRLRPPRLPRPRPRPNRAPRP | 0.0133

Row | Sequence | shrunken log2 fold change
26 | RRIRFRPPRLPRPRPRPVQIPRP | -0.0152
27 | RRIRMRPPRLPRPRPRPNIIPRP | 0.23
28 | RRIRGRPPRLPRPRPRPHEPPRP | 1.15
29 | RRIRYRPPRLPRPRPRPTYPPRP | 0.105
30 | RRIRNRPPRLPRPRPRPFFDPRP | -0.0739
31 | RRIRFRPPRLPRPRPRPCKFPRP | -0.0298
32 | RRIRKRPPRLPRPRPRPENTPRP | 0.44
33 | RRIRCRPPRLPRPRPRPYQTPRP | -0.0384
34 | RRIRMRPPRLPRPRPRPEIYPRP | 0.106
35 | RRIRRRPPRLPRPRPRPVVEPRP | 0.339
36 | RRIRARPPRLPRPRPRPSELPRP | 0.22
37 | RRIRGRPPRLPRPRPRPHGIPRP | 0.00234
38 | RRIRMRPPRLPRPRPRPPAAPRP | 2.78
39 | RRIRERPPRLPRPRPRPTDGPRP | 0.158
40 | RRIRGRPPRLPRPRPRPSGIPRP | 0.0684
41 | RRIRWRPPRLPRPRPRPGEEPRP | 0.387
42 | RRIRWRPPRLPRPRPRPRACPRP | 0.468
43 | RRIRIRPPRLPRPRPRPPKLPRP | 0.0517
44 | RRIRERPPRLPRPRPRPWMYPRP | -0.508
45 | RRIRVRPPRLPRPRPRPSTRPRP | 0.552
46 | RRIRLRPPRLPRPRPRPLKTPRP | -0.0135
47 | RRIRHRPPRLPRPRPRPIYMPRP | -0.0111
48 | RRIRQRPPRLPRPRPRPALYPRP | 0.172
49 | RRIRPRPPRLPRPRPRPYNTPRP | -0.928
50 | RRIRKRPPRLPRPRPRPYRGPRP | -0.231

Row | Sequence | shrunken log2 fold change
51 | RRIRQRPPRLPRPRPRPMTWPRP | -0.0225
52 | RRIRSRPPRLPRPRPRPQDAPRP | 0.0464
53 | RRIRTRPPRLPRPRPRPWRHPRP | -0.0184
54 | RRIRERPPRLPRPRPRPTWVPRP | 0.138
55 | RRIRARPPRLPRPRPRPYSMPRP | -0.484
56 | RRIRFRPPRLPRPRPRPMPDPRP | -0.0671
57 | RRIRMRPPRLPRPRPRPYDHPRP | -0.141
58 | RRIRGRPPRLPRPRPRPNRCPRP | 0.422
59 | RRIRQRPPRLPRPRPRPHRQPRP | 0.00471
60 | RRIRERPPRLPRPRPRPVPGPRP | 0.186
61 | RRIRVRPPRLPRPRPRPQQQPRP | 0.0503
62 | RRIRLRPPRLPRPRPRPWMIPRP | -0.0928
63 | RRIRDRPPRLPRPRPRPMWFPRP | 0.0563
64 | RRIRVRPPRLPRPRPRPMYQPRP | -0.342
65 | RRIRRRPPRLPRPRPRPYGHPRP | -0.198
66 | RRIRMRPPRLPRPRPRPVVKPRP | 0.189
67 | RRIRCRPPRLPRPRPRPKCWPRP | 0.302
68 | RRIRGRPPRLPRPRPRPMGDPRP | 0.783
69 | RRIRWRPPRLPRPRPRPYHFPRP | 0.0137
70 | RRIRMRPPRLPRPRPRPYNIPRP | -0.358
71 | RRIRLRPPRLPRPRPRPQCHPRP | 0.0598
72 | RRIRARPPRLPRPRPRPLIEPRP | 0.388
73 | RRIRQRPPRLPRPRPRPYNQPRP | -0.536
74 | RRIRRRPPRLPRPRPRPMCIPRP | -0.182
75 | RRIRERPPRLPRPRPRPERHPRP | -0.152

Row | Sequence | shrunken log2 fold change
76 | RRIRFRPPRLPRPRPRPCHWPRP | -0.127
77 | RRIRKRPPRLPRPRPRPNNKPRP | -0.162
78 | RRIRVRPPRLPRPRPRPSAMPRP | 0.0604
79 | RRIRHRPPRLPRPRPRPKADPRP | 0.117
80 | RRIRTRPPRLPRPRPRPSMKPRP | 0.00896
81 | RRIRRRPPRLPRPRPRPNFPPRP | 0.46
82 | RRIRKRPPRLPRPRPRPEWVPRP | 0.478
83 | RRIRRRPPRLPRPRPRPHKIPRP | -0.182
84 | RRIRQRPPRLPRPRPRPLHYPRP | -0.269
85 | RRIRRRPPRLPRPRPRPIPYPRP | -0.16
86 | RRIRYRPPRLPRPRPRPTVIPRP | -0.146
87 | RRIRMRPPRLPRPRPRPFWKPRP | 0.072
88 | RRIRARPPRLPRPRPRPCCVPRP | 0.559
89 | RRIRWRPPRLPRPRPRPKKKPRP | -0.139
90 | RRIRVRPPRLPRPRPRPPSMPRP | -0.0312
91 | RRIRARPPRLPRPRPRPSPPPRP | 0.67
92 | RRIRHRPPRLPRPRPRPYHNPRP | -0.853
93 | RRIRQRPPRLPRPRPRPGHVPRP | 0.0119
94 | RRIRERPPRLPRPRPRPLGWPRP | 0.335
95 | RRIRWRPPRLPRPRPRPGLMPRP | 0.444
96 | RRIRQRPPRLPRPRPRPKVGPRP | 0.011
97 | RRIRRRPPRLPRPRPRPQAVPRP | 0.331
98 | RRIRTRPPRLPRPRPRPHWKPRP | 0.00556
99 | RRIRLRPPRLPRPRPRPPEWPRP | 0.682
100 | RRIRLRPPRLPRPRPRPELNPRP | 0.145

Row | Sequence | shrunken log2 fold change
101 | RRIRLRPPRLPRPRPRPVMTPRP | -0.148
102 | RRIRQRPPRLPRPRPRPGMWPRP | 0.191
103 | RRIRPRPPRLPRPRPRPCQEPRP | -0.0635
104 | RRIRDRPPRLPRPRPRPWLQPRP | 0.133
105 | RRIRTRPPRLPRPRPRPTRFPRP | 0.463
106 | RRIRTRPPRLPRPRPRPSNSPRP | -1.22
107 | RRIRPRPPRLPRPRPRPWRLPRP | 0.0836
108 | RRIRCRPPRLPRPRPRPWCRPRP | -0.282
109 | RRIRQRPPRLPRPRPRPFDWPRP | -0.0369
110 | RRIRVRPPRLPRPRPRPFPAPRP | -0.121
111 | RRIRPRPPRLPRPRPRPPSIPRP | -0.0949
112 | RRIRYRPPRLPRPRPRPAFLPRP | -0.365
113 | RRIRWRPPRLPRPRPRPVPPPRP | 0.372
114 | RRIRIRPPRLPRPRPRPVSCPRP | -0.0157
115 | RRIRDRPPRLPRPRPRPVEKPRP | 0.0436
116 | RRIRDRPPRLPRPRPRPINRPRP | -0.104
117 | RRIRRRPPRLPRPRPRPMATPRP | 0.609
118 | RRIRNRPPRLPRPRPRPQDDPRP | 0.00776
119 | RRIRVRPPRLPRPRPRPVDAPRP | 0.485
120 | RRIRKRPPRLPRPRPRPTRVPRP | 0.53
121 | RRIRYRPPRLPRPRPRPQFEPRP | -0.106
122 | RRIRHRPPRLPRPRPRPSGGPRP | -0.0256
123 | RRIRMRPPRLPRPRPRPQADPRP | 0.639
124 | RRIRQRPPRLPRPRPRPKALPRP | -0.0462
125 | RRIRHRPPRLPRPRPRPIAYPRP | -0.149
